Data on seven molecules can be found in publication PMC4155688, “Mapping the Putative G Protein-coupled Receptor (GPCR) Docking Site on GPCR Kinase 2” (The Journal of Biological Chemistry, 2014).

The target in this assay is T1, α2AAR-GFP^2 (UniProt P08913 1-465).
T1 construct: α2A-adrenergic receptor; also called α2A-adrenergic receptor; source: HEK293T, transfected, in living cells; not shown: GFP^2, C-terminal (from the name α2AAR-GFP^2), kept
T1 sequence (looked up): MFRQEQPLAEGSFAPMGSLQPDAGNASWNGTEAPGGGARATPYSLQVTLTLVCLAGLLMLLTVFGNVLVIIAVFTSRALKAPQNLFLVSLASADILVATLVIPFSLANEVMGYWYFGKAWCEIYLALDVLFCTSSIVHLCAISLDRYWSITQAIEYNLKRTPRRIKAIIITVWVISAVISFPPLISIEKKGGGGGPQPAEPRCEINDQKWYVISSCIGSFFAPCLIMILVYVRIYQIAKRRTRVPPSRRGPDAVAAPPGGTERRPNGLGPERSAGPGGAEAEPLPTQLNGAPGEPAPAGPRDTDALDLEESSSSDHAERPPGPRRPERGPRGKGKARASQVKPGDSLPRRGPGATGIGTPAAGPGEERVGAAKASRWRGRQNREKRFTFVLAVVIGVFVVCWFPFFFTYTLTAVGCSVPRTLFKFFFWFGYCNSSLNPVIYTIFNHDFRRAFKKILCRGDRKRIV
As to the kind of experiment: FRET or BRET; living HEK293T cells co-transfected with α2AAR-GFP^2 (acceptor) and RlucII-GRK2 (donor); in PBS at room temperature, with or without 100 μM norepinephrine (one-point and titration: 6 min; time course); coelenterazine 400A 5 μM; net or agonist-promoted BRET. To be noted: partners not purified.

B1: RlucII-GRK2 A16V (enzyme, human, UniProt P25098 1-689, looked up)
chain: MADLEAVLADVSYLMVMEKSKATPAARASKKILLPEPSIRSVMQKYLEDRGEVTFEKIFSQKLGYLLFRDFCLNHLEEARPLVEFYEEIKKYEKLETEEERVARSREIFDSYIMKELLACSHPFSKSATEHVQGHLGKKQVPPDLFQPYIEEICQNLRGDVFQKFIESDKFTRFCQWKNVELNIHLTMNDFSVHRIIGRGGFGEVYGCRKADTGKMYAMKCLDKKRIKMKQGETLALNERIMLSLVSTGDCPFIVCMSYAFHTPDKLSFILDLMNGGDLHYHLSQHGVFSEADMRFYAAEIILGLEHMHNRFVVYRDLKPANILLDEHGHVRISDLGLACDFSKKKPHASVGTHGYMAPEVLQKGVAYDSSADWFSLGCMLFKLLRGHSPFRQHKTKDKHEIDRMTLTMAVELPDSFSPELRSLLEGLLQRDVNRRLGCLGRGAQEVKESPFFRSLDWQMVFLQKYPPPLIPPRGEVNAADAFDIGSFDEEDTKGIKLLDSDQELYRNFPLTISERWQQEVAETVFDTINAETDRLEARKKAKNKQLGHEEDYALGKDCIMHGYMSKMGNPFLTQWQRRYFYLFPNRLEWRGEGEAPQSLLTMEEIQSVEETQIKERKCLLLKIRGGKQFILQCDSDPELVQWKKELRDAYREAQQLVQRVPKMKNKPRSPVVELSKVPLVQRGSANGL
notes: GRK2, human; source: HEK293T, transfected, in living cells
As to B1, the “percent reduction of the agonist-promoted BRET relative to WT” value was roughly 55%.

B2: RlucII-GRK2 L8E (enzyme, human, UniProt P25098 1-689, looked up)
chain: MADLEAVEADVSYLMAMEKSKATPAARASKKILLPEPSIRSVMQKYLEDRGEVTFEKIFSQKLGYLLFRDFCLNHLEEARPLVEFYEEIKKYEKLETEEERVARSREIFDSYIMKELLACSHPFSKSATEHVQGHLGKKQVPPDLFQPYIEEICQNLRGDVFQKFIESDKFTRFCQWKNVELNIHLTMNDFSVHRIIGRGGFGEVYGCRKADTGKMYAMKCLDKKRIKMKQGETLALNERIMLSLVSTGDCPFIVCMSYAFHTPDKLSFILDLMNGGDLHYHLSQHGVFSEADMRFYAAEIILGLEHMHNRFVVYRDLKPANILLDEHGHVRISDLGLACDFSKKKPHASVGTHGYMAPEVLQKGVAYDSSADWFSLGCMLFKLLRGHSPFRQHKTKDKHEIDRMTLTMAVELPDSFSPELRSLLEGLLQRDVNRRLGCLGRGAQEVKESPFFRSLDWQMVFLQKYPPPLIPPRGEVNAADAFDIGSFDEEDTKGIKLLDSDQELYRNFPLTISERWQQEVAETVFDTINAETDRLEARKKAKNKQLGHEEDYALGKDCIMHGYMSKMGNPFLTQWQRRYFYLFPNRLEWRGEGEAPQSLLTMEEIQSVEETQIKERKCLLLKIRGGKQFILQCDSDPELVQWKKELRDAYREAQQLVQRVPKMKNKPRSPVVELSKVPLVQRGSANGL
notes: as for B1
B2: the “percent reduction of the agonist-promoted BRET relative to WT” value was roughly 55%.

B3: RlucII-GRK2 V7A (enzyme, human, UniProt P25098 1-689, looked up)
chain: MADLEAALADVSYLMAMEKSKATPAARASKKILLPEPSIRSVMQKYLEDRGEVTFEKIFSQKLGYLLFRDFCLNHLEEARPLVEFYEEIKKYEKLETEEERVARSREIFDSYIMKELLACSHPFSKSATEHVQGHLGKKQVPPDLFQPYIEEICQNLRGDVFQKFIESDKFTRFCQWKNVELNIHLTMNDFSVHRIIGRGGFGEVYGCRKADTGKMYAMKCLDKKRIKMKQGETLALNERIMLSLVSTGDCPFIVCMSYAFHTPDKLSFILDLMNGGDLHYHLSQHGVFSEADMRFYAAEIILGLEHMHNRFVVYRDLKPANILLDEHGHVRISDLGLACDFSKKKPHASVGTHGYMAPEVLQKGVAYDSSADWFSLGCMLFKLLRGHSPFRQHKTKDKHEIDRMTLTMAVELPDSFSPELRSLLEGLLQRDVNRRLGCLGRGAQEVKESPFFRSLDWQMVFLQKYPPPLIPPRGEVNAADAFDIGSFDEEDTKGIKLLDSDQELYRNFPLTISERWQQEVAETVFDTINAETDRLEARKKAKNKQLGHEEDYALGKDCIMHGYMSKMGNPFLTQWQRRYFYLFPNRLEWRGEGEAPQSLLTMEEIQSVEETQIKERKCLLLKIRGGKQFILQCDSDPELVQWKKELRDAYREAQQLVQRVPKMKNKPRSPVVELSKVPLVQRGSANGL
notes: as for B1
B3: the “percent reduction of the agonist-promoted BRET relative to WT” value was roughly 55%.

B4: RlucII-GRK2 V7E (enzyme, human, UniProt P25098 1-689, looked up)
chain: MADLEAELADVSYLMAMEKSKATPAARASKKILLPEPSIRSVMQKYLEDRGEVTFEKIFSQKLGYLLFRDFCLNHLEEARPLVEFYEEIKKYEKLETEEERVARSREIFDSYIMKELLACSHPFSKSATEHVQGHLGKKQVPPDLFQPYIEEICQNLRGDVFQKFIESDKFTRFCQWKNVELNIHLTMNDFSVHRIIGRGGFGEVYGCRKADTGKMYAMKCLDKKRIKMKQGETLALNERIMLSLVSTGDCPFIVCMSYAFHTPDKLSFILDLMNGGDLHYHLSQHGVFSEADMRFYAAEIILGLEHMHNRFVVYRDLKPANILLDEHGHVRISDLGLACDFSKKKPHASVGTHGYMAPEVLQKGVAYDSSADWFSLGCMLFKLLRGHSPFRQHKTKDKHEIDRMTLTMAVELPDSFSPELRSLLEGLLQRDVNRRLGCLGRGAQEVKESPFFRSLDWQMVFLQKYPPPLIPPRGEVNAADAFDIGSFDEEDTKGIKLLDSDQELYRNFPLTISERWQQEVAETVFDTINAETDRLEARKKAKNKQLGHEEDYALGKDCIMHGYMSKMGNPFLTQWQRRYFYLFPNRLEWRGEGEAPQSLLTMEEIQSVEETQIKERKCLLLKIRGGKQFILQCDSDPELVQWKKELRDAYREAQQLVQRVPKMKNKPRSPVVELSKVPLVQRGSANGL
notes: as for B1
On to B4, for which the “percent reduction of the agonist-promoted BRET relative to WT” value is roughly 55%.

B5: RlucII-GRK2 M17A (enzyme, human, UniProt P25098 1-689, looked up)
chain: MADLEAVLADVSYLMAAEKSKATPAARASKKILLPEPSIRSVMQKYLEDRGEVTFEKIFSQKLGYLLFRDFCLNHLEEARPLVEFYEEIKKYEKLETEEERVARSREIFDSYIMKELLACSHPFSKSATEHVQGHLGKKQVPPDLFQPYIEEICQNLRGDVFQKFIESDKFTRFCQWKNVELNIHLTMNDFSVHRIIGRGGFGEVYGCRKADTGKMYAMKCLDKKRIKMKQGETLALNERIMLSLVSTGDCPFIVCMSYAFHTPDKLSFILDLMNGGDLHYHLSQHGVFSEADMRFYAAEIILGLEHMHNRFVVYRDLKPANILLDEHGHVRISDLGLACDFSKKKPHASVGTHGYMAPEVLQKGVAYDSSADWFSLGCMLFKLLRGHSPFRQHKTKDKHEIDRMTLTMAVELPDSFSPELRSLLEGLLQRDVNRRLGCLGRGAQEVKESPFFRSLDWQMVFLQKYPPPLIPPRGEVNAADAFDIGSFDEEDTKGIKLLDSDQELYRNFPLTISERWQQEVAETVFDTINAETDRLEARKKAKNKQLGHEEDYALGKDCIMHGYMSKMGNPFLTQWQRRYFYLFPNRLEWRGEGEAPQSLLTMEEIQSVEETQIKERKCLLLKIRGGKQFILQCDSDPELVQWKKELRDAYREAQQLVQRVPKMKNKPRSPVVELSKVPLVQRGSANGL
notes: as for B1
Take B5: the “percent reduction of the agonist-promoted BRET relative to WT” value was roughly 55%.

B6: RlucII-GRK2 D317A (enzyme, human, UniProt P25098 1-689, looked up)
chain: MADLEAVLADVSYLMAMEKSKATPAARASKKILLPEPSIRSVMQKYLEDRGEVTFEKIFSQKLGYLLFRDFCLNHLEEARPLVEFYEEIKKYEKLETEEERVARSREIFDSYIMKELLACSHPFSKSATEHVQGHLGKKQVPPDLFQPYIEEICQNLRGDVFQKFIESDKFTRFCQWKNVELNIHLTMNDFSVHRIIGRGGFGEVYGCRKADTGKMYAMKCLDKKRIKMKQGETLALNERIMLSLVSTGDCPFIVCMSYAFHTPDKLSFILDLMNGGDLHYHLSQHGVFSEADMRFYAAEIILGLEHMHNRFVVYRALKPANILLDEHGHVRISDLGLACDFSKKKPHASVGTHGYMAPEVLQKGVAYDSSADWFSLGCMLFKLLRGHSPFRQHKTKDKHEIDRMTLTMAVELPDSFSPELRSLLEGLLQRDVNRRLGCLGRGAQEVKESPFFRSLDWQMVFLQKYPPPLIPPRGEVNAADAFDIGSFDEEDTKGIKLLDSDQELYRNFPLTISERWQQEVAETVFDTINAETDRLEARKKAKNKQLGHEEDYALGKDCIMHGYMSKMGNPFLTQWQRRYFYLFPNRLEWRGEGEAPQSLLTMEEIQSVEETQIKERKCLLLKIRGGKQFILQCDSDPELVQWKKELRDAYREAQQLVQRVPKMKNKPRSPVVELSKVPLVQRGSANGL
notes: GRK2, human; catalytically inert mutant; source: HEK293T, transfected, in living cells
As to B6, the “fold recruitment (agonist-promoted BRET) relative to WT” value was 2 fold.

B7: RlucII-GRK2 R587Q (enzyme, human, UniProt P25098 1-689, looked up)
chain: MADLEAVLADVSYLMAMEKSKATPAARASKKILLPEPSIRSVMQKYLEDRGEVTFEKIFSQKLGYLLFRDFCLNHLEEARPLVEFYEEIKKYEKLETEEERVARSREIFDSYIMKELLACSHPFSKSATEHVQGHLGKKQVPPDLFQPYIEEICQNLRGDVFQKFIESDKFTRFCQWKNVELNIHLTMNDFSVHRIIGRGGFGEVYGCRKADTGKMYAMKCLDKKRIKMKQGETLALNERIMLSLVSTGDCPFIVCMSYAFHTPDKLSFILDLMNGGDLHYHLSQHGVFSEADMRFYAAEIILGLEHMHNRFVVYRDLKPANILLDEHGHVRISDLGLACDFSKKKPHASVGTHGYMAPEVLQKGVAYDSSADWFSLGCMLFKLLRGHSPFRQHKTKDKHEIDRMTLTMAVELPDSFSPELRSLLEGLLQRDVNRRLGCLGRGAQEVKESPFFRSLDWQMVFLQKYPPPLIPPRGEVNAADAFDIGSFDEEDTKGIKLLDSDQELYRNFPLTISERWQQEVAETVFDTINAETDRLEARKKAKNKQLGHEEDYALGKDCIMHGYMSKMGNPFLTQWQRRYFYLFPNQLEWRGEGEAPQSLLTMEEIQSVEETQIKERKCLLLKIRGGKQFILQCDSDPELVQWKKELRDAYREAQQLVQRVPKMKNKPRSPVVELSKVPLVQRGSANGL
notes: as for B1
B7: the “percent reduction of the NOR-promoted BRET signal relative to WT” value turned out to be 90%.
